Laboratory results as given in publication PMC11404819, “Peptide nucleic acids can form hairpins and bind RNA-binding proteins”.

Target: T1, Avi-FtsYNG (UniProt P10121 196-497)
T1 sequence: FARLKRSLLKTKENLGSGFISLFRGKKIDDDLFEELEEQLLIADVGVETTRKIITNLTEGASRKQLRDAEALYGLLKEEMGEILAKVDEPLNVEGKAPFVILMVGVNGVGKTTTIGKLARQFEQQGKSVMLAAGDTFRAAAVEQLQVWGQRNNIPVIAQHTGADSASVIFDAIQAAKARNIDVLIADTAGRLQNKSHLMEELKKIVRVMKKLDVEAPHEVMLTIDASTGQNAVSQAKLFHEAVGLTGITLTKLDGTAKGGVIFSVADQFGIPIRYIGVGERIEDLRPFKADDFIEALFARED
Experiment: SPR; 10 C; RNA over immobilised protein; curve incomplete, fit fixed with GDP control; figure legend swaps panels with PNAtet; SPR: 20 mM HEPES pH 7.5, 150 mM NaCl, 3 mM MgCl2, 1 mM TCEP, 1% glycerol, 0.005% Tween, 10 C; MST: 50 mM HEPES pH 7.5, 100 mM NaCl, 1.5 mM MgCl2, 10% glycerol
Conditions: protein: recombinant; tags: Avi tag, biotinylated, immobilised on streptavidin; hairpin, 5 bp stem

Question: Which Kd does the source give for GCGCCGGAAGGCGC (structured_RNA, first and last two phosphodiester bonds replaced by phosphorothioate) [moRNAtet] here?
Answer: 160 ± 20 µM
